Data reported in patent US20250027068.
Positions count from the first letter of the chain named.

B1: PRT-143 (protein)
chain: MANQEIRYSEVTPYHITSVWTKGVTPPANFTQGEDVFHAPYVANQGWYDITKTFNGKDDLLCGAATAGNMLHWWFDQNKDQIKRYLEEHPEKQKINFNGEQMFDVKEAIDTKNHQLDSKLFEYFKEKAFPYLSTKHLGVFPDHVIDMFINGYRLSLTNHGPTPVKEGSKDPRGGIFDAVFTRGDQSKLLTSRHDFKEKTLNEISQLIKQELTEGKALGLSHTYANVRINHVINLWGADFDAEGNLEAIYVTDSDSNASIGMKKYFVGVNSAGKVAISAKEIKEDNIGAQVLGLFTLSTGQDSWNQTN
B2: PRT-145 (protein)
chain: B1 chain with E202T, T212Q, E213S, V268K
B3: PRT-144 (protein)
chain: B1 chain with E202D, T212Q, E213S, V268K
B4: PRT-147 (protein)
chain: B1 chain with T17K, S18I, E202D, T212Q, E213S, V268K
B5: PRT-146 (protein)
chain: B1 chain with T17K, S18T, E202D, T212Q, E213S, V268K
B6: PRT-148 (protein)
chain: MANQEIRYSEVTPYHVTSVWTKGVTPPANFTQGEDVFHAPYVANQGWYDITKTFNGKDDLLCGAATAGNMLHWWFDQNKDQIKRYLEEHPEKQKINFNGEQMFDVKEAIDTKNHQLDSKLFEYFKEKAFPYLSTKHLGVFPDHVIDMFINGYRLSLTNHGPTPVKRQSKDPRGGIFDAVFTRGDQSKLLTSRHDFKEKNLKEISDLIKKELTEGKALGLSHTYANVRINHVINLWGADFDSNGNLKAIYVTDSDSNASIGMKKYFVGVNSAGKVAISAKEIKEDNIGAQVLGLFTLSTGQDSWNKTN
B7: PRT-151 (protein)
chain: B6 chain with E91D, S168T, T181G, Q185S, S186T, D301K
B8: PRT-149 (protein)
chain: B6 chain with S168T, T181G, S186T, D301K
B9: PRT-150 (protein)
chain: B6 chain with S168E, T181G, S186T, D301K
B10: PRT-12 (protein)
chain: MANQEIRYSEVTPYHVTSVWTKGVTPPADFTQGEDVFHAPYKANQGWYDITKTFNGKDDLLCGAATAGNMLHWWFDQNKDQIERYLKEHPEKQKINFNGEQMFDVKEAIDTKDSQTDSKLFEYFKEKAFPYLSTKHLGVFPDHVIDMFINGYRLSLTNHGPTPVKRGSKDPRGGFFDAVFTRGDQSKLLTSRHDFKEKTLNEISDLIKKELTEGKALGLSHTYANVRINHVINLWGADFDSNGNLEAIYVTDSDSNASIGMKKYFVGVNSAGKVAISAKEIKEDNIGAQVLGLFTLSTGQDIWEQTN
B11: PRT-131 (protein)
chain: MRNATEAYAKEVPHQITSVWTKGVTPLTPEQFRYNNEDVIHAPYLAHQGWYDITKAFNGKDNLLCGAATAGNMLHWWFDQNKTEIEAYLKKHPEKQKIIFNNQELFDLKAAIDTKDSQTNSQLFNYFRDKAFPNLSARQLGVMPDLVLDMFINGYYLNVFKTQSTDVNRPYQDKDKRGGIFDAVFTRGDQTTLLTARHDLKNKGLNEISTIIKQELTEGRALALSHTYANVSISHVINLWGADFNAEGNLEAIYVTDSDANASIGMKKYFVGINAHGKVAISAKKIEGENIGAQVLGLFTLSSGKDIWQKLS
B12: PRT-134 (protein)
chain: B11 chain with N58D, K90S, E207D, I211L, K278H
B13: PRT-137 (protein)
chain: B11 chain with N58D, K90S, E207D
B14: PRT-141 (protein)
chain: B11 chain with N58D, K90S, E207D, H276A, K278H
B15: PRT-138 (protein)
chain: B11 chain with L27P, N58D, K90S, E207D, K278H
B16: PRT-139 (protein)
chain: B11 chain with H47N, N58D, K90S, E207D, K278H
B17: PRT-133 (protein)
chain: B11 chain with A56T, N58D, K90S, E207D, K278H
B18: PRT-135 (protein)
chain: B11 chain with N58D, K90S, E207D, R220K, K278H
B19: PRT-136 (protein)
chain: B11 chain with N58D, K90S, E207D, I273V, K278H
B20: PRT-132 (protein)
chain: B11 chain with H14K, L27P, N58D, K90S, G204T, E207D, K278H
B21: PRT-142 (protein)
chain: B11 chain with I40F, N58D, K90S, E207D, K278H
B22: PRT-140 (protein)
chain: B11 chain with K90S, E207D, K278H
B23: PRT-13 (protein)
chain: MANQEIRYSEETPYHVTSVWTKGVTPPANFTQGEDVFHAPYKANQGWYDITKTFNGKDDLLCGAATAGNMLHWWFDQNKDQIEAYLKEHPEKQKINFNGEQMFDVKEAIDTKDDQTNSKLFEYFKEKAFPYLSTKHLGVFPDHVLDMFINGYRLSLTNHGPTPVKEGSKDPRGGIFDAVFTRGDQSKLLTSRHDFKEKTLKEISDLIKQELTEGKALALSHTYANVRINHVINLWGADFDSNGNLEAIYVTDSDSNASIGMKKYFVGVNSAGKVAISAKEIEDDNIGAQVLGLFTLSTGQDIWNQTN

Biological target: pooled human IgG

Row | Protein | Enzyme Activity Endpoint Assay (purified): Fab'2 [ng/µL] | Enzyme Activity Endpoint Assay (purified): Fc [ng/µL] | Enzyme Activity Endpoint Assay (purified): IgG [ng/µL] | Enzyme Activity Endpoint Assay (purified): scIgG [ng/µL] | Enzyme Activity Endpoint Assay: Fab′2 [ng/µL] | Enzyme Activity Endpoint Assay: Fc [ng/µL] | Enzyme Activity Endpoint Assay: IgG [ng/µL] | Enzyme Activity Endpoint Assay: scIgG [ng/µL]
1 | B1 | 576 | 170 | 0 | 0 | – | – | – | –
2 | B2 | 735 | 207 | 0 | 0 | – | – | – | –
3 | B3 | 562 | 151 | 0 | 26 | – | – | – | –
4 | B4 | 723 | 206 | 0 | 0 | – | – | – | –
5 | B5 | 672 | 215 | 0 | 0 | – | – | – | –
6 | B6 | 764 | 203 | 0 | 0 | – | – | – | –
7 | B7 | 521 | 137 | 0 | 0 | – | – | – | –
8 | B8 | 831 | 0 | 0 | 0 | – | – | – | –
9 | B9 | 612 | 161 | 0 | 0 | – | – | – | –
10 | B10 | – | – | – | – | 47 | 122 | 16 | 14
11 | B11 | 745 | 201 | 0 | 0 | – | – | – | –
12 | B12 | 597 | 174 | 0 | 0 | – | – | – | –
13 | B13 | 662 | 198 | 0 | 0 | – | – | – | –
14 | B14 | 846 | 215 | 0 | 0 | – | – | – | –
15 | B15 | 563 | 215 | 0 | 144 | – | – | – | –
16 | B16 | 733 | 213 | 0 | 0 | – | – | – | –
17 | B17 | 774 | 207 | 0 | 12 | – | – | – | –
18 | B18 | 526 | 140 | 0 | 6 | – | – | – | –
19 | B19 | 635 | 160 | 0 | 0 | – | – | – | –
20 | B20 | 697 | 219 | 0 | 0 | – | – | – | –
21 | B21 | 589 | 135 | 0 | 0 | – | – | – | –
22 | B22 | 755 | 213 | 0 | 0 | – | – | – | –
23 | B23 | – | – | – | – | 2 | 74 | 12 | 66
